# Data taken from patent US20250179187A1, “ANTI PD-L2 ANTIBODY” (REJUVERON SENESCENCE THERAPEUTICS AG, priority 2022, published 2025).
# T1: human PD-L2 antigen (Homo sapiens, UniProt Q9BQ51)
# T1 sequence (Q9BQ51 20-273): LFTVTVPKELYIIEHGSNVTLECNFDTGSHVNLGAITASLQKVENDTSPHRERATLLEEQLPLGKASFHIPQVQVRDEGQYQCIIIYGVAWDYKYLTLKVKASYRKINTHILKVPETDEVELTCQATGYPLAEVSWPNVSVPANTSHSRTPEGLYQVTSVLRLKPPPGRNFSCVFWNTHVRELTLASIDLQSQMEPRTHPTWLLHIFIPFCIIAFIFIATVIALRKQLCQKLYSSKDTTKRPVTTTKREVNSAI
# Target: T1, human PD-L2 antigen
# Assay: Single cycle kinetics on Biacore 8K, binding to human PD-L2 antigen
# Settings: Table 2, cell culture supernatants
# Source text: Table 2: Single cycle kinetic parameters of chimeric (VH0/VK0) and humanized variants (tested as cell culture supernatants) binding to human PD-L2 antigen as determined using the Biacore 8K. As used herein, the term “KD” is intended to refer to the dissociation equilibrium constant of a particular antibody-antigen interaction, ka is the binding rate constant and kd is the dissociation rate constant. The binding affinity of antibodies of the disclosed invention may be measured or determined by standard antibody-antigen assays. The relative KD was calculated by dividing the KD of the humanized variant by that of the VH0/VK0 assayed in the same experiment.
row,Molecule,kd
1,"VH1/VK1: humanized anti-PD-L2 variant; SEQ ID NO: 2/SEQ ID NO: 10 (antibody, V domains shown) VH: QVQLVQSGAELKKPGSSVKVSCKASGYAFSNYFIEWVKQPPGKGLEWIGLNIPGSGGSNYAEKFKGRATITADKSTSTAYMELSSLTSEDSAVYFCARRRLPPDWYFDVWGQGTTVTVSS VL: DVVMTQSPLSLPVTLGQPASISCRSSQSLVHSDGNTYLHWYQQKPGQPPKLLIYKVSNRFSGVPDRFSGSGSGTDFTLKISRVEAEDVGVYFCSQSTHVPWTFGGGTKVEIK",0.00011 s⁻¹
2,"VH4/VK3: humanized anti-PD-L2 variant; SEQ ID NO: 5/SEQ ID NO: 12 (antibody, V domains shown) VH: QVQLVQSGAEVKKPGSSVKVSCKASGYAFSNYFIEWVKQPPGKGLEWIGLNIPGSGGSNYAEKFKGRVTITADKSTSTAYMELSSLRSEDTAVYYCARRRLPPDWYFDVWGQGTTVTVSS VL: DVVMTQSPLSLPVTLGQPASISCRSSQSLVHSGGNTYLHWYQQKPGQPPKLLIYKVSNRFSGVPDRFSGSGSGTDFTLKISRVEAEDVGVYFCSQSTHVPWTFGGGTKVEIK",0.000466 s⁻¹
3,"VH2/VK3: humanized anti-PD-L2 variant; SEQ ID NO: 3/SEQ ID NO: 12 (antibody, V domains shown) VH: QVQLVQSGAEVKKPGSSVKVSCKASGYAFSNYFIEWVKQPPGKGLEWIGLNIPGSGGSNYAEKFKGRATITADKSTSTAYMELSSLRSEDSAVYFCARRRLPPDWYFDVWGQGTTVTVSS VL: DVVMTQSPLSLPVTLGQPASISCRSSQSLVHSGGNTYLHWYQQKPGQPPKLLIYKVSNRFSGVPDRFSGSGSGTDFTLKISRVEAEDVGVYFCSQSTHVPWTFGGGTKVEIK",0.000414 s⁻¹
4,"VH8/VK1: humanized anti-PD-L2 variant; SEQ ID NO: 8/SEQ ID NO: 10 (antibody, V domains shown) VH: QVQLVQSGAEVKKPGSSVKVSCKASGYAFSNYFIEWVKQPPGKGLEWIGLNIPGSGGSNYAEKFKGRATITADKSTSTAYMELSSLRSEDTAVYYCARRRLPPDWYFDVWGQGTTVTVSS VL: DVVMTQSPLSLPVTLGQPASISCRSSQSLVHSDGNTYLHWYQQKPGQPPKLLIYKVSNRFSGVPDRFSGSGSGTDFTLKISRVEAEDVGVYFCSQSTHVPWTFGGGTKVEIK",0.00012 s⁻¹
5,"VH3/VK1: humanized anti-PD-L2 variant; SEQ ID NO: 4/SEQ ID NO: 10 (antibody, V domains shown) VH: QVQLVQSGAEVKKPGSSVKVSCKASGYAFSNYFIEWVKQPPGKGLEWIGLNIPGSGGSNYAEKFKGRVTITADKSTSTAYMELSSLRSEDSAVYFCARRRLPPDWYFDVWGQGTTVTVSS VL: DVVMTQSPLSLPVTLGQPASISCRSSQSLVHSDGNTYLHWYQQKPGQPPKLLIYKVSNRFSGVPDRFSGSGSGTDFTLKISRVEAEDVGVYFCSQSTHVPWTFGGGTKVEIK",0.000128 s⁻¹
6,"VH3/VK2: humanized anti-PD-L2 variant; SEQ ID NO: 4/SEQ ID NO: 11 (antibody, V domains shown) VH: QVQLVQSGAEVKKPGSSVKVSCKASGYAFSNYFIEWVKQPPGKGLEWIGLNIPGSGGSNYAEKFKGRVTITADKSTSTAYMELSSLRSEDSAVYFCARRRLPPDWYFDVWGQGTTVTVSS VL: DVVMTQSPLSLPVTLGQPASISCRSSQSLVHSDGNTYLHWYQQKPGQPPKLLIYKVSNRFSGVPDRFSGSGSGTDFTLKISRVEAEDVGVYYCSQSTHVPWTFGGGTKVEIK",0.000132 s⁻¹
7,"VH7/VK3: humanized anti-PD-L2 variant; SEQ ID NO: 7/SEQ ID NO: 12 (antibody, V domains shown) VH: QVQLVQSGAELKKPGSSVKVSCKASGYAFSNYFIEWVKQPPGKGLEWIGLNIPGSGGSNYAEKFKGRATITADKSTSTAYMELSSLRSEDTAVYYCARRRLPPDWYFDVWGQGTTVTVSS VL: DVVMTQSPLSLPVTLGQPASISCRSSQSLVHSGGNTYLHWYQQKPGQPPKLLIYKVSNRFSGVPDRFSGSGSGTDFTLKISRVEAEDVGVYFCSQSTHVPWTFGGGTKVEIK",0.000344 s⁻¹
8,"VH3/VK3: humanized anti-PD-L2 variant; SEQ ID NO: 4/SEQ ID NO: 12 (antibody, V domains shown) VH: QVQLVQSGAEVKKPGSSVKVSCKASGYAFSNYFIEWVKQPPGKGLEWIGLNIPGSGGSNYAEKFKGRVTITADKSTSTAYMELSSLRSEDSAVYFCARRRLPPDWYFDVWGQGTTVTVSS VL: DVVMTQSPLSLPVTLGQPASISCRSSQSLVHSGGNTYLHWYQQKPGQPPKLLIYKVSNRFSGVPDRFSGSGSGTDFTLKISRVEAEDVGVYFCSQSTHVPWTFGGGTKVEIK",0.000497 s⁻¹
9,"VH8/VK3: humanized anti-PD-L2 variant; SEQ ID NO: 8/SEQ ID NO: 12 (antibody, V domains shown) VH: QVQLVQSGAEVKKPGSSVKVSCKASGYAFSNYFIEWVKQPPGKGLEWIGLNIPGSGGSNYAEKFKGRATITADKSTSTAYMELSSLRSEDTAVYYCARRRLPPDWYFDVWGQGTTVTVSS VL: DVVMTQSPLSLPVTLGQPASISCRSSQSLVHSGGNTYLHWYQQKPGQPPKLLIYKVSNRFSGVPDRFSGSGSGTDFTLKISRVEAEDVGVYFCSQSTHVPWTFGGGTKVEIK",0.000388 s⁻¹
10,"VH2/VK2: humanized anti-PD-L2 variant; SEQ ID NO: 3/SEQ ID NO: 11 (antibody, V domains shown) VH: QVQLVQSGAEVKKPGSSVKVSCKASGYAFSNYFIEWVKQPPGKGLEWIGLNIPGSGGSNYAEKFKGRATITADKSTSTAYMELSSLRSEDSAVYFCARRRLPPDWYFDVWGQGTTVTVSS VL: DVVMTQSPLSLPVTLGQPASISCRSSQSLVHSDGNTYLHWYQQKPGQPPKLLIYKVSNRFSGVPDRFSGSGSGTDFTLKISRVEAEDVGVYYCSQSTHVPWTFGGGTKVEIK",0.000122 s⁻¹
11,"VH1/VK3: humanized anti-PD-L2 variant; SEQ ID NO: 2/SEQ ID NO: 12 (antibody, V domains shown) VH: QVQLVQSGAELKKPGSSVKVSCKASGYAFSNYFIEWVKQPPGKGLEWIGLNIPGSGGSNYAEKFKGRATITADKSTSTAYMELSSLTSEDSAVYFCARRRLPPDWYFDVWGQGTTVTVSS VL: DVVMTQSPLSLPVTLGQPASISCRSSQSLVHSGGNTYLHWYQQKPGQPPKLLIYKVSNRFSGVPDRFSGSGSGTDFTLKISRVEAEDVGVYFCSQSTHVPWTFGGGTKVEIK",0.000365 s⁻¹
12,"VH1/VK2: humanized anti-PD-L2 variant; SEQ ID NO: 2/SEQ ID NO: 11 (antibody, V domains shown) VH: QVQLVQSGAELKKPGSSVKVSCKASGYAFSNYFIEWVKQPPGKGLEWIGLNIPGSGGSNYAEKFKGRATITADKSTSTAYMELSSLTSEDSAVYFCARRRLPPDWYFDVWGQGTTVTVSS VL: DVVMTQSPLSLPVTLGQPASISCRSSQSLVHSDGNTYLHWYQQKPGQPPKLLIYKVSNRFSGVPDRFSGSGSGTDFTLKISRVEAEDVGVYYCSQSTHVPWTFGGGTKVEIK",0.000116 s⁻¹
13,"VH2/VK1: humanized anti-PD-L2 variant; SEQ ID NO: 3/SEQ ID NO: 10 (antibody, V domains shown) VH: QVQLVQSGAEVKKPGSSVKVSCKASGYAFSNYFIEWVKQPPGKGLEWIGLNIPGSGGSNYAEKFKGRATITADKSTSTAYMELSSLRSEDSAVYFCARRRLPPDWYFDVWGQGTTVTVSS VL: DVVMTQSPLSLPVTLGQPASISCRSSQSLVHSDGNTYLHWYQQKPGQPPKLLIYKVSNRFSGVPDRFSGSGSGTDFTLKISRVEAEDVGVYFCSQSTHVPWTFGGGTKVEIK",0.000119 s⁻¹
14,"VH0/VK1: anti-PD-L2 variant on hIgG1; SEQ ID NO: 1/SEQ ID NO: 10 (antibody, V domains shown, human IgG1 constant regions) VH: QVQLQQSGAELVRPGTSVKVSCKASGYAFSNYFIEWVKQRPGQGLEWIGLNIPGSGGSNYAEKFKGKATLTADKSSSTAYMQLSSLTSEDSAVYFCARRRLPPDWYFDVWGTGTTVTVSS VL: DVVMTQSPLSLPVTLGQPASISCRSSQSLVHSDGNTYLHWYQQKPGQPPKLLIYKVSNRFSGVPDRFSGSGSGTDFTLKISRVEAEDVGVYFCSQSTHVPWTFGGGTKVEIK",9.88e-05 s⁻¹
15,"VH4/VK1: humanized anti-PD-L2 variant; SEQ ID NO: 5/SEQ ID NO: 10 (antibody, V domains shown) VH: QVQLVQSGAEVKKPGSSVKVSCKASGYAFSNYFIEWVKQPPGKGLEWIGLNIPGSGGSNYAEKFKGRVTITADKSTSTAYMELSSLRSEDTAVYYCARRRLPPDWYFDVWGQGTTVTVSS VL: DVVMTQSPLSLPVTLGQPASISCRSSQSLVHSDGNTYLHWYQQKPGQPPKLLIYKVSNRFSGVPDRFSGSGSGTDFTLKISRVEAEDVGVYFCSQSTHVPWTFGGGTKVEIK",0.000125 s⁻¹
16,"VH7/VK1: humanized anti-PD-L2 variant; SEQ ID NO: 7/SEQ ID NO: 10 (antibody, V domains shown) VH: QVQLVQSGAELKKPGSSVKVSCKASGYAFSNYFIEWVKQPPGKGLEWIGLNIPGSGGSNYAEKFKGRATITADKSTSTAYMELSSLRSEDTAVYYCARRRLPPDWYFDVWGQGTTVTVSS VL: DVVMTQSPLSLPVTLGQPASISCRSSQSLVHSDGNTYLHWYQQKPGQPPKLLIYKVSNRFSGVPDRFSGSGSGTDFTLKISRVEAEDVGVYFCSQSTHVPWTFGGGTKVEIK",0.000113 s⁻¹
